Laboratory results as given in the Human Domainome abundance scans (Beltran et al. 2025).
± gives the uncertainty stated by the source.

B1: Metastasis-associated protein MTA3, residues 265 to 317; numbered along this chain, Q9BTC8 (parent)
chain: RDEMEEWSASEASLFEEALEKYGKDFNDIRQDFLPWKSLTSIIEYYYMWKTTD
B2: POU domain, class 3, transcription factor 3, residues 320 to 388; numbered along this chain, P20264 (parent)
chain: DDLEQFAKQFKQRRIKLGFTQADVGLALGTLYGNVFSQTTICRFEALQLSFKNMCKLKPLLNKWLEEAD

Variants of: B1
Experiment: abundance fitness (aPCA) (normalised: wild type 0, dead -1); higher = more abundant; growth selection in yeast, the domain comes from the species named
Conditions: Homo sapiens

Variant | abundance fitness
RDEMEEWSASEASLFEEALEKYGKDFNDIRQDFLPWKSLTSIIEYYYMWKTTP [D53P] | -0.044 ± 0.097
RDEMEEWSASEASLFEEALEKYGKDFNDIRQDFLPWKSLTSIIEYYYMWKTTV [D53V] | -0.336 ± 0.092
RDEMEEWSASEASLFEEALEKYGKDFNDIRQDFLPWKSLTSIIEYYYMWKTTR [D53R] | -0.164 ± 0.39
RDEMEEWSASEASLFEEALEKYGKDFNDIRQDFLPWKSLTSIIEYYYMWKTTY [D53Y] | -0.543 ± 0.36
RDEMEEWSASEASLFEEALEKYGKDFNDIRQDFLPWKSLTSIIEYYYMWKTTA [D53A] | -0.135 ± 0.095
RDEMEEWSASEASLFEEALEKYGKDFNDIRQDFLPWKSLTSIIEYYYMWKTTG [D53G] | 0.066 ± 0.16
RDEMEEWSASEASLFEEALEKYGKDFNDIRQDFLPWKSLTSIIEYYYMWKTTI [D53I] | -0.566 ± 0.48
RDEMEEWSASEASLFEEALEKYGKDFNDIRQDFLPWKSLTSIIEYYYMWKTTN [D53N] | 0.211 ± 0.3
RDEMEEWSASEASLFEEALEKYGKDFNDIRQDFLPWKSLTSIIEYYYMWKTTT [D53T] | -0.41 ± 0.22
RDEMEEWSASEASLFEEALEKYGKDFNDIRQDFLPWKSLTSIIEYYYMWKTTC [D53C] | 0.179 ± 0.29
RDEMEEWSASEASLFEEALEKYGKDFNDIRQDFLPWKSLTSIIEYYYMWKHTD [T51H] | -0.235 ± 0.1
RDEMEEWSASEASLFEEALEKYGKDFNDIRQDFLPWKSLTSIIEYYYMWKMTD [T51M] | -0.542 ± 0.16
RDEMEEWSASEASLFEEALEKYGKDFNDIRQDFLPWKSLTSIIEYYYMWKQTD [T51Q] | 0.433 ± 0.14
RDEMEEWSASEASLFEEALEKYGKDFNDIRQDFLPWKSLTSIIEYYYMWKVTD [T51V] | -0.624 ± 0.14
RDEMEEWSASEASLFEEALEKYGKDFNDIRQDFLPWKSLTSIIEYYYMWKWTD [T51W] | -0.853 ± 0.17
RDEMEEWSASEASLFEEALEKYGKDFNDIRQDFLPWKSLTSIIEYYYMWKNTD [T51N] | -0.027 ± 0.083
RDEMEEWSASEASLFEEALEKYGKDFNDIRQDFLPWKSLTSIIEYYYMWKGTD [T51G] | 0.076 ± 0.075
RDEMEEWSASEASLFEEALEKYGKDFNDIRQDFLPWKSLTSIIEYYYMWKYTD [T51Y] | 0.304 ± 0.12
RDEMEEWSASEASLFEEALEKYGKDFNDIRQDFLPWKSLTSIIEYYYMWKDTD [T51D] | 0.134 ± 0.18
RDEMEEWSASEASLFEEALEKYGKDFNDIRQDFLPWKSLTSIIEYYYMWKFTD [T51F] | -0.732 ± 0.35
RDEMEEWSASEASLFEEALEKYGKDFNDIRQDFLPWKSLTSIIEYYYMWKRTD [T51R] | -0.097 ± 0.075

Variant | abundance fitness
RDEMEEWSASEASLFEEALEKYGKDFNDIRQDFLPWKSLTSIIEYYYMWKLTD [T51L] | -0.147 ± 0.084
RDEMEEWSASEASLFEEALEKYGKDFNDIRQDFLPWKSLTSIIEYYYMWKSTD [T51S] | -0.068 ± 0.1
RDEMEEWSASEASLFEEALEKYGKDFNDIRQDFLPWKSLTSIIEYYYMWKPTD [T51P] | -0.1 ± 0.1
RDEMEEWSASEASLFEEALEKYGKDFNDIRQDFLPWKSLTSIIEYYYMWKTKD [T52K] | 0.344 ± 0.1
RDEMEEWSASEASLFEEALEKYGKDFNDIRQDFLPWKSLTSIIEYYYMWKTLD [T52L] | -0.298 ± 0.094
RDEMEEWSASEASLFEEALEKYGKDFNDIRQDFLPWKSLTSIIEYYYMWKTGD [T52G] | 0.001 ± 0.097
RDEMEEWSASEASLFEEALEKYGKDFNDIRQDFLPWKSLTSIIEYYYMWKTCD [T52C] | 0.191 ± 0.14
RDEMEEWSASEASLFEEALEKYGKDFNDIRQDFLPWKSLTSIIEYYYMWKTAD [T52A] | -0.097 ± 0.065
RDEMEEWSASEASLFEEALEKYGKDFNDIRQDFLPWKSLTSIIEYYYMWKTFD [T52F] | -0.51 ± 0.37
RDEMEEWSASEASLFEEALEKYGKDFNDIRQDFLPWKSLTSIIEYYYMWKTID [T52I] | -0.292 ± 0.22
RDEMEEWSASEASLFEEALEKYGKDFNDIRQDFLPWKSLTSIIEYYYMWKTMD [T52M] | -0.402 ± 0.13
RDEMEEWSASEASLFEEALEKYGKDFNDIRQDFLPWKSLTSIIEYYYMWKTND [T52N] | 0.2 ± 0.095
RDEMEEWSASEASLFEEALEKYGKDFNDIRQDFLPWKSLTSIIEYYYMWKTPD [T52P] | -0.055 ± 0.078
RDEMEEWSASEASLFEEALEKYGKDFNDIRQDFLPWKSLTSIIEYYYMWKTDD [T52D] | -0.251 ± 0.21
RDEMEEWSASEASLFEEALEKYGKDFNDIRQDFLPWKSLTSIIEYYYMWKTRD [T52R] | 0.08 ± 0.069
RDEMEEWSASEASLFEEALEKYGKDFNDIRQDFLPWKSLTSIIEYYYMWKTWD [T52W] | -0.521 ± 0.23
RDEMEEWSASEASLFEEALEKYGKDFNDIRQDFLPWKSLTSIIEYYYMWKTVD [T52V] | -0.097 ± 0.12
RDEMEEWSASEASLFEEALEKYGKDFNDIRQDFLPWKSLTSIIEYYYMWKTSD [T52S] | -0.032 ± 0.071
RDEMEEWSASEASLFEEALEKYGKDFNDIRQDFLPWKSLTSIIEYYYMWKTHD [T52H] | -0.405 ± 0.2
RDEMEEWSASEASLFEEALEKYGKDFNDIRQDFLPWKSLTSIIEYYYMWKTYD [T52Y] | -0.428 ± 0.12

Variants of: B2
Experiment: as above
Conditions: Homo sapiens

Variant | abundance fitness
DKLEQFAKQFKQRRIKLGFTQADVGLALGTLYGNVFSQTTICRFEALQLSFKNMCKLKPLLNKWLEEAD [D2K] | 0.034 ± 0.12
DTLEQFAKQFKQRRIKLGFTQADVGLALGTLYGNVFSQTTICRFEALQLSFKNMCKLKPLLNKWLEEAD [D2T] | 0.029 ± 0.13
